In article PMC4714923 (Biochemistry, 2015):
Where no end group is shown, it is not given here. 5‑Fam = 5-carboxyfluorescein; Ahx = NCCCCCC(=O)O

T1: Human FKBP52 (52-kDa FK506-binding protein) (human, UniProt Q02790 1-459)
T1 sequence (looked up): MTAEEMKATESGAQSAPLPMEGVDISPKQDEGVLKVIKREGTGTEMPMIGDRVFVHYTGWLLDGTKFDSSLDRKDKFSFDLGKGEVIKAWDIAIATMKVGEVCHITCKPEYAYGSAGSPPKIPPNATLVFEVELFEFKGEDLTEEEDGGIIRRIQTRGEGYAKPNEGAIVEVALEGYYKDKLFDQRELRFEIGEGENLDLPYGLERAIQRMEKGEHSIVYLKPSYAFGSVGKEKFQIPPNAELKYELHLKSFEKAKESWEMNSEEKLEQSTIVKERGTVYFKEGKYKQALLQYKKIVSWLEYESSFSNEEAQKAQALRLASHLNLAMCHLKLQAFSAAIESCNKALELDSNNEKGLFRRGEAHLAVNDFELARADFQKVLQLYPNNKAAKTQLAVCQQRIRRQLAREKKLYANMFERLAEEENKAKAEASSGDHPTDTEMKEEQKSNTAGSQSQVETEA

T2: Human FKBP51 (51-kDa FK506-binding protein) (human, UniProt Q13451 1-457)
T2 sequence (looked up): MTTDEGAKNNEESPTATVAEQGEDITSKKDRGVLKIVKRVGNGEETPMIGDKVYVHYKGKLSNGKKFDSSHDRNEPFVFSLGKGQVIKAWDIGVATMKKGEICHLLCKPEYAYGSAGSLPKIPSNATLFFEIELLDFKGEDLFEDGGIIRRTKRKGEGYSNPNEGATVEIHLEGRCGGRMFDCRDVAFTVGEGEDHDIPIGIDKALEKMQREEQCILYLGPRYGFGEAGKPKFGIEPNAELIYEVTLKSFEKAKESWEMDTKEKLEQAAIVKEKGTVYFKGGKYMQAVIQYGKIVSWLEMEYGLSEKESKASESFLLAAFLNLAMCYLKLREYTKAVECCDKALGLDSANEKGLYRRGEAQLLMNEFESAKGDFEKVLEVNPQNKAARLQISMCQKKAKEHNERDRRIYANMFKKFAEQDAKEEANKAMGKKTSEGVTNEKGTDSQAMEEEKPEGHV

B1: Human CHIP (carboxyl terminus of Hsc70 interacting protein) (natural protein, UniProt Q9UNE7 1-303, looked up)
chain: MKGKEEKEGGARLGAGGGSPEKSPSAQELKEQGNRLFVGRKYPEAAACYGRAITRNPLVAVYYTNRALCYLKMQQHEQALADCRRALELDGQSVKAHFFLGQCQLEMESYDEAIANLQRAYSLAKEQRLNFGDDIPSALRIAKKKRWNSIEERRIHQESELHSYLSRLIAAERERELEECQRNHEGDEDDSHVRAQQACIEAKHDKYMADMDELFSQVDEKRKKRDIPDYLCGKISFELMREPCITPSGITYDRKDIEEHLQRVGHFDPVTRSPLTQEQLIPNLAMKEVIDAFISENGWVEDY
B2: Human DnaJC7 (natural protein, UniProt Q99615 1-494, looked up)
chain: MAAAAECDVVMAATEPELLDDQEAKREAETFKEQGNAYYAKKDYNEAYNYYTKAIDMCPKNASYYGNRAATLMMLGRFREALGDAQQSVRLDDSFVRGHLREGKCHLSLGNAMAACRSFQRALELDHKNAQAQQEFKNANAVMEYEKIAETDFEKRDFRKVVFCMDRALEFAPACHRFKILKAECLAMLGRYPEAQSVASDILRMDSTNADALYVRGLCLYYEDCIEKAVQFFVQALRMAPDHEKACIACRNAKALKAKKEDGNKAFKEGNYKLAYELYTEALGIDPNNIKTNAKLYCNRGTVNSKLRKLDDAIEDCTNAVKLDDTYIKAYLRRAQCYMDTEQYEEAVRDYEKVYQTEKTKEHKQLLKNAQLELKKSKRKDYYKILGVDKNASEDEIKKAYRKRALMHHPDRHSGASAEVQKEEEKKFKEVGEAFTILSDPKKKTRYDSGQDLDEEGMNMGDFDPNNIFKAFFGGPGGFSFEASGPGNFFFQFG

Tests used:
Assay in all cases: fluorescence polarisation
[1] = target: T1, Human FKBP52 (52-kDa FK506-binding …)
[2] = target: T2, Human FKBP51 (51-kDa FK506-binding …)
[3] = target: Human Hop (Hsp70/Hsp90 organizing protein) (human, UniProt P31948 1-543)
[4] = target: Human Hsp72 (HSPA1A), full-length (human, UniProt P0DMV8 1-641)
Chain of Human Hsp72 (HSPA1A), full-length (P0DMV8 whole entry): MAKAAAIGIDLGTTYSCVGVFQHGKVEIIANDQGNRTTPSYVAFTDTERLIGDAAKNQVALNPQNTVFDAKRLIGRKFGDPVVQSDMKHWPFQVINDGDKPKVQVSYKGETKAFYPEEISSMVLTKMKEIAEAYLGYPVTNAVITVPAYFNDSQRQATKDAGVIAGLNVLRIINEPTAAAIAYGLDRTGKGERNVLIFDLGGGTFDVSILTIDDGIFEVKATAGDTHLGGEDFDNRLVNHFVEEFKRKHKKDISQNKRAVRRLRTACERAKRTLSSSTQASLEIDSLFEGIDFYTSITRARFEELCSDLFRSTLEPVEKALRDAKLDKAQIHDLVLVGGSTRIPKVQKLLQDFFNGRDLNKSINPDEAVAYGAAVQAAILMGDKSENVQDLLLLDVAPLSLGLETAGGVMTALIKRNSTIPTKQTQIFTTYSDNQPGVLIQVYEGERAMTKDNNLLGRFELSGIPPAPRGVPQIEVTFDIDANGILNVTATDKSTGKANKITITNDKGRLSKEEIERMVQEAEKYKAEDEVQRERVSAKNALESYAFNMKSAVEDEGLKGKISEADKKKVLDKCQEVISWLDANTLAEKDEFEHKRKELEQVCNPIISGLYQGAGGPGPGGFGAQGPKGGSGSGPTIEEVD

Hop R77A = Hop R77A (human, UniProt P31948 1-543, R77A)
Hop K8A = Hop K8A (human, UniProt P31948 1-543, K8A)
[5] = target: B1

Kd [1] [µM]	Kd [2] [µM]	Binder	other results
> 25	> 25	{5‑Fam-Ahx}-DDTSRMEKVD [Hsp90α Lys mutant tracer (Fam-DDTSRMEKVD)]	
> 25	> 25	{5‑Fam-Ahx}-DDTSRIEEVD [mutant Hsp90α tracer (Fam-DDTSRIEEVD)]	Kd [3]: > 25 µM
		B1	binding result [4]: binds
	4.63	{5‑Fam-Ahx}-DDTSRMEAVD [Hsp90α Ala mutant tracer (Fam-DDTSRMEAVD)]	
> 75	> 75	{5‑Fam-Ahx}-SSGPTIEEVD [Hsc70 C-terminal tracer (Fam-SSGPTIEEVD)]	Kd (Hop R77A): > 25 µM; Kd (Hop K8A): > 25 µM
> 75		{5‑Fam-Ahx}-GSGPTIEEVD [Hsp72 C-terminal tracer (Fam-GSGPTIEEVD)]	Kd (Hop R77A): > 25 µM; Kd (Hop K8A): > 25 µM; Kd [5]: 0.51 µM
		B2	binding result [4]: binds
> 75	> 75	{5‑Fam-Ahx}-GSGPTMEEVD [chimeric mutant Hsp72 tracer (Fam-GSGPTMEEVD)]	
